The values below come from patent US20140296146A1, “Thermostable Inhibitors of Activation of the Blood Clotting System Through Contact with Foreign Surfaces” (Synapse B.V., priority 2011, published 2014).

The nature of experiment [1]: TICA1 Ala-scan with intact disulfides, activity vs TICA1. The conditions noted are these: single amino acid substituted by alanine. From the text:
Every single amino acid was substituted by alanine except for cysteine. […] See also FIG. 6.

The target of experiment [2] is T1, h-FXIIa (human, UniProt P00748 20-615).
T1 construct: also called factor XIIa
T1 sequence (looked up): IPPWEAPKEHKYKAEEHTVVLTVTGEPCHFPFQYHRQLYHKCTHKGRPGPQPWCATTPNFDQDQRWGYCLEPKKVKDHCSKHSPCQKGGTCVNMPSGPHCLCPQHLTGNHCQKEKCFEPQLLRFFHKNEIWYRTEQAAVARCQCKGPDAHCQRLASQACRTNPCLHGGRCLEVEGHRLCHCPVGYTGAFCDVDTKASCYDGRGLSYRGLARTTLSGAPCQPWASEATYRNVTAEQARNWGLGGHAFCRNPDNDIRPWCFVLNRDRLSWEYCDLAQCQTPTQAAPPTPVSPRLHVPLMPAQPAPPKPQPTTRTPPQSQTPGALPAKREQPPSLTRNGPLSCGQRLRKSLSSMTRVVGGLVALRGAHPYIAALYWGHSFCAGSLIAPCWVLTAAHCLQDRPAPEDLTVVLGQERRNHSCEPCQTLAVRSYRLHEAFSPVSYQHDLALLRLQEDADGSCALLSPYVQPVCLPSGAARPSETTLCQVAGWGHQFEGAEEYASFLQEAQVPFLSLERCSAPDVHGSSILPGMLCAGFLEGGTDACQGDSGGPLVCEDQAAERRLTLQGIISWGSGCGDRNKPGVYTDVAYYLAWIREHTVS
The experiment in a line: S2302 hydrolysis by h-FXIIa (5.01 nM); inhibitor kept at -80° C. (reference). Here is the method:
(§1) Stock FXIIa was diluted 700× in BSA5. The inhibitor was diluted in BSA5 as indicated. Wells contained 70 μl diluted FXIIa (5 nM final), 70 μl inhibitor and 20 μl S2302 (475 or 462.5 μM final). The reaction was started after 5 min heating on the heating plate with S2302. Filters 405 nm and 490 nm reference. Found ΔmA/min was multiplied by 2.14 to get the figure for a 1 cm path.

Experiment [3] has as its target T1, h-FXIIa. Description: S2302 hydrolysis by h-FXIIa (5.01 nM); inhibitor kept at -80° C. The procedure: as §1
Experiment [4] addresses T1, h-FXIIa. Description: S2302 hydrolysis by h-FXIIa, fit of residual activity. Here is the method: (§2) Stock FXIIa was diluted 700× in BSA5. The inhibitor was diluted in BSA5 as indicated. Wells contained 70 μl diluted FXIIa (5 nM final), 70 μl inhibitor and 20 μl S2302 (475 or 462.5 μM final). The reaction was started after 5 min heating on the heating plate with S2302. Filters 405 nm and 490 nm reference. Found mΔA/min was multiplied by 2.14 to get the figure for a 1 cm path.
(§3) in which E=[FXIIa], Ki is the dissociation constant, I=[Inhibitor], kcat and Km are Michaelis constants and S=[S2302].

For experiment [5], the target named is T1, h-FXIIa. Description: S2302 hydrolysis by h-FXIIa (5.01 nM); inhibitor at RT during 72 hrs, against -80° C. Here is the method: as §1
In experiment [6] the target is T1, h-FXIIa. The experiment in a line: S2302 hydrolysis by h-FXIIa (5.01 nM); inhibitor 30 min 95° C., against -80° C. Here is the method:
as §1

In experiment [7] the target is T1, h-FXIIa. Description: S2302 hydrolysis by h-FXIIa (5.01 nM); inhibitor 30 min 95° C. The procedure: as §1
In experiment [8] the target is T1, h-FXIIa. Description: S2302 hydrolysis by h-FXIIa (5.01 nM); inhibitor at RT during 72 hrs. The procedure: as §1
The target of experiment [9] is T1, h-FXIIa. Description: S2302 hydrolysis by h-FXIIa (5 nM), fit of residual activity; dissociation constant of the complex. The procedure:
as §2, §3

Experiment [10] addresses T2, h-FXIIa (human), P00748.
T2 chain: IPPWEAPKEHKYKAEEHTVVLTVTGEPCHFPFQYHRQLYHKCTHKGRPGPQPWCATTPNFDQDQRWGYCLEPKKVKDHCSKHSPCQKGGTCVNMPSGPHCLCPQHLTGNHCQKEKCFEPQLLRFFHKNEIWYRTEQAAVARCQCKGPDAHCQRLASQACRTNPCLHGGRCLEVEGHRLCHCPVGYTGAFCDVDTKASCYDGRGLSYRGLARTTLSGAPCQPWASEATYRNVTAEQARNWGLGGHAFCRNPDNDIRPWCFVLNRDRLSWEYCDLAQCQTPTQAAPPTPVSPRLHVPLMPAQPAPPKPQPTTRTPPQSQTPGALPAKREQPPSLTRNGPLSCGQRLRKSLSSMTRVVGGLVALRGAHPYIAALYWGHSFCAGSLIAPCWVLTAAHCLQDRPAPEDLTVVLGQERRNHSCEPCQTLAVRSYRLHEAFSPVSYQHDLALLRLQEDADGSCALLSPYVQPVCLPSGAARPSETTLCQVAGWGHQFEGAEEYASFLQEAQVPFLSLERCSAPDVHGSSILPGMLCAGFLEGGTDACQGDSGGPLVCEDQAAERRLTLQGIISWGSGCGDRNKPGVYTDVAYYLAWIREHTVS
The experiment in a line: cell-based or functional assay.

For experiment [11], the target named is T2, h-FXIIa (human), …. The experiment in a line: activity of TICA1 disulfide variants (FIG. 5), reference; assay not named.
The target in experiment [12] is T2, h-FXIIa (human), …. The experiment in a line: S2302 hydrolysis by h-FXIIa, fit of residual activity.
Experiment [13] has as its target T2, h-FXIIa (human), …. Description: S2302 hydrolysis by h-FXIIa (5.01 nM); inhibitor at RT during 72 hrs, against -80° C.
Experiment [14] addresses T2, h-FXIIa (human), …. Description: S2302 hydrolysis by h-FXIIa (5.01 nM); inhibitor at RT during 72 hrs.
For experiment [15], the target named is T2, h-FXIIa (human), …. Description: S2302 hydrolysis by h-FXIIa (5.01 nM); inhibitor kept at -80° C.
For experiment [16], the target named is T2, h-FXIIa (human), …. The experiment in a line: S2302 hydrolysis by h-FXIIa (5 nM), fit of residual activity; dissociation constant of the complex.
Experiment [17] addresses T2, h-FXIIa (human), …. The experiment in a line: S2302 hydrolysis by h-FXIIa (5.01 nM); inhibitor kept at -80° C. (reference).
For experiment [18], the target named is T2, h-FXIIa (human), …. Description: S2302 hydrolysis by h-FXIIa (5.01 nM); inhibitor 30 min 95° C., against -80° C.
Experiment [19] concerns the target T2, h-FXIIa (human), …. The experiment in a line: S2302 hydrolysis by h-FXIIa (5.01 nM); inhibitor 30 min 95° C.
Experiment [20] concerns the target T2, h-FXIIa (human), …. The experiment in a line: residual inhibitor activity after 60 minutes at 95° C., calculated from free FXIIa (total 9.33 nM).
The target in experiment [21] is T2, h-FXIIa (human), …. Description: FXIIa activity, total FXIIa 9.33 nM, 306 nM TICA1 added after 60 minutes at 95° C.
Experiment [22] deals with T1, h-FXIIa. The experiment in a line: activity of TICA1 disulfide variants against TICA1 with 3 disulfides (FIG. 5); assay not named.
For experiment [23], the target named is T1, h-FXIIa. Description: S2302 hydrolysis by F.XIIa; before heating.
Experiment [24] deals with h-FXIIa (human) (UniProt P00748). Description: activity of TICA1 disulfide variants against TICA1 with 3 disulfides (FIG. 5); assay not named.

Values joined by “and” are separate entries in the source; they are usually repeats but may differ in a detail not shown here. Equal values may be shown once. Bridges are numbered along the chain shown (N, C = ends). Where no end group is shown, it is not given here.

For the molecule “AVCPRILMKCKKDSDCLAECVCLEHGYCG [TICA1 Ala-scan analogue]”, the “Activity vs TICA1” value in experiment [1] came to 7.5%.
In the case of “RVCARILMKCKKDSDCLAECVCLEHGYCG [TICA1 Ala-scan analogue]”, in [1], the “Activity vs TICA1” value came to 9.0%.
Take “RVCPAILMKCKKDSDCLAECVCLEHGYCG [TICA1 Ala-scan analogue]”: the “Activity vs TICA1” value in [1] is on record as 0.009%.
For orientation: Ki means the equilibrium dissociation constant of an inhibitor or competing ligand from its target. Lower therefore signals tighter binding. Take “squash trypsin inhibitor (STI), the serpin from Cucurbita Maxima seeds”: the Res. Act. (%) turned out to be 100% in experiment [2], 106% in experiment [5] and 105% in experiment [6]. Further, the Ki in experiment [3] was 251 nM; in experiment [4] it was 251 nM; in [7], 264 nM; in experiment [8] it was 267 nM; in experiment [9], 251 nM.

B1: TICA 1 (peptide)
peptide: RVCPRILMKCKKDSDCLAECVCLEHGYCG
modifications: not checked
B1 registered an Activity of FXIIa (mA/min) in [10] of 33.5 mA/min. The activity (%) in [11] worked out at 100%. Besides, the Ki came out at 25.5 nM in experiment [12]; 26 nM in experiment [14]; 26 nM in [15]; 25.5 nM in [16]; 24 nM in experiment [19]. Moreover, the values for the Res. Act. (%) in [13], in experiment [17] and in experiment [18] were 102%, 100% and 94%, respectively. Also, the Residual activity (%) in experiment [20] was 81.7%. In addition, in [21], the Free FXIIa came to 3.93 nM.

B2: TICA1-AAA (peptide)
peptide: RVCPRILMKCKKDSDCLAECVCLEHGYCGAAA
modifications: not checked
With B2, in experiment [16], the Ki was determined as 377 nM.

B3: PCTI (peptide)
peptide: RVCGIGPRPRLPWPRILMKCKKDSDCLAECVCLEHGYCG
modifications: not checked
In the case of B3, in [16], the Ki is 469000 nM.

B4: TICA1 with 1 disulfide bond (C3-C20) (peptide)
peptide: RVCPRILMKAKKDSDALAECVALEHGYAG
modifications: disulfide 3-20
With B4, the “activity (%)” value in experiment [22] was determined as 0.003%.

B5: TICA1 with 2 disulfide bonds (C3-C20, C10-C22) (peptide)
peptide: RVCPRILMKCKKDSDALAECVCLEHGYAG
modifications: disulfide 10-22, 3-20
With B5, in [22], the “activity (%)” value was found to be 0.2%.

B6: TICA1 with 2 disulfide bonds (C10-C22, C16-C28) (peptide)
peptide: RVAPRILMKCKKDSDCLAEAVCLEHGYCG
modifications: disulfide 10-22, 16-28
In the case of B6, the “activity (%)” value in [22] was determined as 0.3%.

B7: TICA 2 (peptide)
peptide: RVCPRILMECKKDSDCLAECVCLEHGYCG
modifications: disulfide (positions not given here)
notes: Synthetic, folded peptide
As for B7, the figures for the “Res. Act. (%)” value in [2], in experiment [5] and in [6] were 100%, 105% and 99%, respectively. For the same molecule, the Ki in experiment [3] was 109 nM; in experiment [4], 109 nM; in experiment [23] it was 0.355 µg/mL and 109 nM; in [7], 108 nM; in [8] it was 114 nM; in [9], 109 nM.

B8: TICA1 with 1 disulfide bond (C10-C22) (peptide)
peptide: RVAPRILMKCKKDSDALAEAVCLEHGYAG
modifications: disulfide 10-22
Regarding B8, the “activity (%)” value in experiment [22] is 0.003%.

B9: TICA 4 (peptide)
peptide: RVCPKILMECKKDSDCLAECICLEHGYCG
modifications: disulfide (positions not given here)
notes: Synthetic congener
Regarding B9, the figures for the “Res. Act. (%)” value in experiment [2], in [5] and in [6] were 100%, 98% and 94%, respectively. Moreover, the Ki in experiment [3] was 1420 nM; in experiment [4], 1420 nM; in experiment [23], 4.62 µg/mL and 1.42 µM; in [7], 1340 nM; in experiment [8], 1400 nM; in experiment [9], 1420 nM.

B10: TICA1 with 1 disulfide bond (C16-C28) (peptide)
peptide: RVAPRILMKAKKDSDCLAEAVALEHGYCG
modifications: disulfide 16-28
On to B10, for which the “activity (%)” value in [22] was 0.006%.

B11: AAA-TICA1 (peptide)
peptide: AAARVCPRILMKCKKDSDCLAECVCLEHGYCG
modifications: not checked
Consider B11, for which the Ki in experiment [16] was determined as 104 nM.

B12: TICA 3 (peptide)
peptide: HEERVCPRILMKCKKDSDCLAECVCLEHGYCG
notes: Synthetic congener; also called HEE-TICA1
As for B12, the “Res. Act. (%)” value in experiment [2] was determined as 100%; in experiment [5], 101%; in experiment [6], 103%. Further, the Ki in experiment [3] was 3090 nM; in [4] it was 3090 nM; in [23], 10.1 µg/mL and 3.09 µM; in experiment [7] it was 3180 nM; in [8], 3130 nM; in [9], 3090 nM.

B13: TICA 5 (peptide)
peptide: HEERVCPKILMECKKDSDCLAECICLEHGYCG
notes: Synthetic congener; also called HEE-TICA4
Turning to B13, the “Res. Act. (%)” value amounted to 100% in experiment [2], 96% in experiment [5] and 105% in experiment [6]. Further, the Ki in experiment [3] was 171000 nM; in [4], 171000 nM; in experiment [23], 556 µg/mL and 171 µM; in experiment [7] it was 179000 nM; in [8], 165000 nM; in experiment [9], 171000 nM.

B14: TICA1 with 2 disulfide bonds (C3-C20, C16-C28) (peptide)
peptide: RVCPRILMKAKKDSDCLAECVALEHGYCG
modifications: disulfide 16-28, 3-20
With B14, in [24], the activity (%) amounted to 6.8%.
